Results taken from the RNAGym collection of RNA variant scans (doi:10.7554/elife.80360).

B1: CPEB3 Ribozyme (parent)
chain: GGGGGCCACAGCAGAAGCGUUCACGUCGCGGCCCCUGUCAGAUUCUGGUGAAUCUGCGAAUUCUGCUGU

Variants of: B1
Test: self-cleavage, relative activity (ratio to wild type); higher = more cleavage; co-transcriptional
Work on GGGGGCCACAGCAGAAGCGUUCACGUCGCGGCCCCUGUCAGAUUAUGGUGAAUCUACGAAUUCUGCUGU [C45A G56A] yielded a self-cleavage of 0.848. In the case of GGGGGCCACAGCAGAAGCGUUCACGUCGCGGCCCCUGUCAGAUUAUGGUGAAUCUGCUAAUUCUGCUGU [C45A G58U], the self-cleavage is reported as 0.988. GGGGGCCACAGCAGAAGCGUUCACGUCGCGGCCCCUGUCAGAUUAUGGUGAAUCUGCGAAUUCUACUGU [C45A G65A] showed a self-cleavage of 0.814. For GGGGGCCACAGCAGAAGCGUUCACGUCGCGGCCCCUGUCAGAUUAUGGAGAAUCUGCGAAUUCUGCUGU [C45A U49A], the self-cleavage was 0.997. GGGGGCCACAGCAGAAGCGUUCACGUCGCGGCCCCUGUCAGAUUAUGGGGAAUCUGCGAAUUCUGCUGU [C45A U49G] showed a self-cleavage of 1.01. Variant GGGGGCCACAGCAGAAGCGUUCACGUCGCGGCCCCUGUCAGAUUAUGGUGAACCUGCGAAUUCUGCUGU [C45A U53C] has a self-cleavage of 0.804. In the case of GGGGGCCACAGCAGAAGCGUUCACGUCGCGGCCCCUGUCAGAUUAUGGUGAAGCUGCGAAUUCUGCUGU [C45A U53G], the self-cleavage is reported as 0.863. Work on GGGGGCCACAGCAGAAGCGUUCACGUCGCGGCCCCUGUCAGAUUAUGGUGAAUCCGCGAAUUCUGCUGU [C45A U55C] yielded a self-cleavage of 0.516. In the case of GGGGGCCACAGCAGAAGCGUUCACGUCGCGGCCCCUGUCAGAUUAUGGUGAAUCUGCGAACUCUGCUGU [C45A U61C], the self-cleavage is reported as 0.697. For GGGGGCCACAGCAGAAGCGUUCACGUCGCGGCCCCUGUCAGAUUGUGGUGAGUCUGCGAAUUCUGCUGU [C45G A52G], the self-cleavage was 0.989. In the case of GGGGGCCACAGCAGAAGCGUUCACGUCGCGGCCCCUGUCAGAUUGUGGUGAUUCUGCGAAUUCUGCUGU [C45G A52U], the self-cleavage is reported as 0.998. With GGGGGCCACAGCAGAAGCGUUCACGUCGCGGCCCCUGUCAGAUUGUGGUGAAUAUGCGAAUUCUGCUGU [C45G C54A] the self-cleavage was 0.579. Variant GGGGGCCACAGCAGAAGCGUUCACGUCGCGGCCCCUGUCAGAUUGUGGUGAAUCUGCGAAUUAUGCUGU [C45G C63A] has a self-cleavage of 0.732. Variant GGGGGCCACAGCAGAAGCGUUCACGUCGCGGCCCCUGUCAGAUUGUGGUGAAUCUGCGAAUUGUGCUGU [C45G C63G] has a self-cleavage of 0.798. GGGGGCCACAGCAGAAGCGUUCACGUCGCGGCCCCUGUCAGAUUGUGGUGAAUCUGCGAAUUCUGAUGU [C45G C66A] showed a self-cleavage of 0.767. For GGGGGCCACAGCAGAAGCGUUCACGUCGCGGCCCCUGUCAGAUUGUGGUGAAUCUGCGAAUUCUGUUGU [C45G C66U], the self-cleavage was 0.961. Variant GGGGGCCACAGCAGAAGCGUUCACGUCGCGGCCCCUGUCAGAUUGUCGUGAAUCUGCGAAUUCUGCUGU [C45G G47C] has a self-cleavage of 1. GGGGGCCACAGCAGAAGCGUUCACGUCGCGGCCCCUGUCAGAUUGUUGUGAAUCUGCGAAUUCUGCUGU [C45G G47U] showed a self-cleavage of 1.04. GGGGGCCACAGCAGAAGCGUUCACGUCGCGGCCCCUGUCAGAUUGUGGUUAAUCUGCGAAUUCUGCUGU [C45G G50U] showed a self-cleavage of 0.961. Variant GGGGGCCACAGCAGAAGCGUUCACGUCGCGGCCCCUGUCAGAUUGUGGUGAAUCUCCGAAUUCUGCUGU [C45G G56C] has a self-cleavage of 0.469. With GGGGGCCACAGCAGAAGCGUUCACGUCGCGGCCCCUGUCAGAUUGUGGUGAAUCUUCGAAUUCUGCUGU [C45G G56U] the self-cleavage was 0.722. For GGGGGCCACAGCAGAAGCGUUCACGUCGCGGCCCCUGUCAGAUUGUGGUGAAUCUGCGAAUUCUCCUGU [C45G G65C], the self-cleavage was 0.62. For GGGGGCCACAGCAGAAGCGUUCACGUCGCGGCCCCUGUCAGAUUGUGGUGAAUCUGCGAAUUCUGCUUU [C45G G68U], the self-cleavage was 0.979. GGGGGCCACAGCAGAAGCGUUCACGUCGCGGCCCCUGUCAGAUUGUGGAGAAUCUGCGAAUUCUGCUGU [C45G U49A] gave a self-cleavage of 0.987. GGGGGCCACAGCAGAAGCGUUCACGUCGCGGCCCCUGUCAGAUUGUGGUGAAACUGCGAAUUCUGCUGU [C45G U53A] showed a self-cleavage of 0.921. GGGGGCCACAGCAGAAGCGUUCACGUCGCGGCCCCUGUCAGAUUGUGGUGAAUCUGCGAAUACUGCUGU [C45G U62A] gave a self-cleavage of 0.939. For GGGGGCCACAGCAGAAGCGUUCACGUCGCGGCCCCUGUCAGAUUGUGGUGAAUCUGCGAAUUCAGCUGU [C45G U64A], the self-cleavage was 0.908. Variant GGGGGCCACAGCAGAAGCGUUCACGUCGCGGCCCCUGUCAGAUUGUGGUGAAUCUGCGAAUUCUGCGGU [C45G U67G] has a self-cleavage of 1.01. Work on GGGGGCCACAGCAGAAGCGUUCACGUCGCGGCCCCUGUCAGAUUGUGGUGAAUCUGCGAAUUCUGCUGG [C45G U69G] yielded a self-cleavage of 1.05. For GGGGGCCACAGCAGAAGCGUUCACGUCGCGGCCCCUGUCAGAUUUUGGUGGAUCUGCGAAUUCUGCUGU [C45U A51G], the self-cleavage was 1.01. Work on GGGGGCCACAGCAGAAGCGUUCACGUCGCGGCCCCUGUCAGAUUUUGGUGAAUCUGCGCAUUCUGCUGU [C45U A59C] yielded a self-cleavage of 0.72. With GGGGGCCACAGCAGAAGCGUUCACGUCGCGGCCCCUGUCAGAUUUUGGUGAAUGUGCGAAUUCUGCUGU [C45U C54G] the self-cleavage was 0.785. Work on GGGGGCCACAGCAGAAGCGUUCACGUCGCGGCCCCUGUCAGAUUUUGGUGAAUUUGCGAAUUCUGCUGU [C45U C54U] yielded a self-cleavage of 1.01. Work on GGGGGCCACAGCAGAAGCGUUCACGUCGCGGCCCCUGUCAGAUUUUGGUGAAUCUGUGAAUUCUGCUGU [C45U C57U] yielded a self-cleavage of 0.317. For GGGGGCCACAGCAGAAGCGUUCACGUCGCGGCCCCUGUCAGAUUUUGGUGAAUCUGCGAAUUGUGCUGU [C45U C63G], the self-cleavage was 0.816. GGGGGCCACAGCAGAAGCGUUCACGUCGCGGCCCCUGUCAGAUUUUGGUGAAUCUGCGAAUUUUGCUGU [C45U C63U] gave a self-cleavage of 1. Work on GGGGGCCACAGCAGAAGCGUUCACGUCGCGGCCCCUGUCAGAUUUUGGUGAAUCUGCGAAUUCUGUUGU [C45U C66U] yielded a self-cleavage of 0.984. Work on GGGGGCCACAGCAGAAGCGUUCACGUCGCGGCCCCUGUCAGAUUUUCGUGAAUCUGCGAAUUCUGCUGU [C45U G47C] yielded a self-cleavage of 0.998. Work on GGGGGCCACAGCAGAAGCGUUCACGUCGCGGCCCCUGUCAGAUUUUGGUUAAUCUGCGAAUUCUGCUGU [C45U G50U] yielded a self-cleavage of 0.991.
